Measured values from article PMC5090061.

Assays:
[1] = biological target: GMPCPP-stabilized microtubules of porcine brain tubulin (porcine) (UniProt P02550); assay: single-molecule TIRF microscopy; rhodamine-labelled GMPCPP-stabilized microtubules stuck onto the flow-chamber surface; 1–6 nM MCAK-GFP or GFP-labelled mutant in BRB20 pH 6.9, 75 mM KCl, 1 mM ATP, 0.05% Tween 20, 0.1 mg/ml BSA; 25°C; duration of GFP events at the microtubule end and on the lattice measured from kymographs
[2] = biological target: GMPCPP-stabilized microtubules of porcine brain tubulin (porcine) (UniProt P02550)
[3] = biological target: Unpolymerized GDP-tubulin (porcine brain) (porcine) (UniProt P02550)

Sequence of UniProt P02550 (P02550 whole entry, looked up): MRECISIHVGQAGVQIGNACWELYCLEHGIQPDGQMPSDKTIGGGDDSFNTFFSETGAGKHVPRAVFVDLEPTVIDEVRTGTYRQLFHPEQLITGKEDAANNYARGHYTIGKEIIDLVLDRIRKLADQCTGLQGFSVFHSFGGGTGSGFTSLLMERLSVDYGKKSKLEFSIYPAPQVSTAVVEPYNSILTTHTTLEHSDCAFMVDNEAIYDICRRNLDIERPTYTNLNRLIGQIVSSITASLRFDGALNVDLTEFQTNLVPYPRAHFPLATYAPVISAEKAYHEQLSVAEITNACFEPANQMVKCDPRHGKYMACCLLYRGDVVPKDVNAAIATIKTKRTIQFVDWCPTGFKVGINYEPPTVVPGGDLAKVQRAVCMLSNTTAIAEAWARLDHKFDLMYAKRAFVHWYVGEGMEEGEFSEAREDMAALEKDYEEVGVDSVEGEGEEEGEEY

Binder	microtubule-end residence time [1] [s]	percent of microtubule end interaction events longer than 2 s [1] [%]	depolymerization rate of individual GMPCPP microtubules with 40 nM MCAK [2] [μm min^−1]	microtubule-stimulated ATPase (0.1 µM MCAK, 10 µM GMPCPP-stabilized microtubules) [2] [s⁻¹]	tubulin-stimulated ATPase (0.1 µM MCAK, 10 µM unpolymerized GDP-tubulin) [3] [s⁻¹]
Full-length human MCAK-his6-EGFP (wild type) (natural protein) MAMDSSLQARLFPGLAIKIQRSNGLIHSANVRTVNLEKSCVSVEWAEGGATKGKEIDFDDVAAINPELLQLLPLHPKDNLPLQENVTIQKQKRRSVNSKIPAPKESLRSRSTRMSTVSELRITAQENDMEVELPAAANSRKQFSVPPAPTRPSCPAVAEIPLRMVSEEMEEQVHSIRGSSSANPVNSVRRKSCLVKEVEKMKNKREEKKAQNSEMRMKRAQEYDSSFPNWEFARMIKEFRATLECHPLTMTDPIEEHRICVCVRKRPLNKQELAKKEIDVISIPSKCLLLVHEPKLKVDLTKYLENQAFCFDFAFDETASNEVVYRFTARPLVQTIFEGGKATCFAYGQTGSGKTHTMGGDLSGKAQNASKGIYAMASRDVFLLKNQPCYRKLGLEVYVTFFEIYNGKLFDLLNKKAKLRVLEDGKQQVQVVGLQEHLVNSADDVIKMIDMGSACRTSGQTFANSNSSRSHACFQIILRAKGRMHGKFSLVDLAGNERGADTSSADRQTRMEGAEINKSLLALKECIRALGQNKAHTPFRESKLTQVLRDSFIGENSRTCMIATISPGISSCEYTLNTLRYADRVKELSPHSGPSGEQLIQMETEEMEACSNGALIPGNLSKEEEELSSQMSSFNEAMTQIRELEEKAMEELKEIIQQGPDWLELSEMTEQPDYDLETFVNKAESALAQQAKHFSALRDVIKALRLAMQLEEQASRQISSKKRPQ	2.03	31.5	2.12	3.16	0.204
Full-length human MCAK-his6-EGFP K524A (natural protein) MAMDSSLQARLFPGLAIKIQRSNGLIHSANVRTVNLEKSCVSVEWAEGGATKGKEIDFDDVAAINPELLQLLPLHPKDNLPLQENVTIQKQKRRSVNSKIPAPKESLRSRSTRMSTVSELRITAQENDMEVELPAAANSRKQFSVPPAPTRPSCPAVAEIPLRMVSEEMEEQVHSIRGSSSANPVNSVRRKSCLVKEVEKMKNKREEKKAQNSEMRMKRAQEYDSSFPNWEFARMIKEFRATLECHPLTMTDPIEEHRICVCVRKRPLNKQELAKKEIDVISIPSKCLLLVHEPKLKVDLTKYLENQAFCFDFAFDETASNEVVYRFTARPLVQTIFEGGKATCFAYGQTGSGKTHTMGGDLSGKAQNASKGIYAMASRDVFLLKNQPCYRKLGLEVYVTFFEIYNGKLFDLLNKKAKLRVLEDGKQQVQVVGLQEHLVNSADDVIKMIDMGSACRTSGQTFANSNSSRSHACFQIILRAKGRMHGKFSLVDLAGNERGADTSSADRQTRMEGAEINKSLLALAECIRALGQNKAHTPFRESKLTQVLRDSFIGENSRTCMIATISPGISSCEYTLNTLRYADRVKELSPHSGPSGEQLIQMETEEMEACSNGALIPGNLSKEEEELSSQMSSFNEAMTQIRELEEKAMEELKEIIQQGPDWLELSEMTEQPDYDLETFVNKAESALAQQAKHFSALRDVIKALRLAMQLEEQASRQISSKKRPQ	0.59	0	0.13	0.72	0.184
Full-length human MCAK-his6-EGFP E525A (natural protein) MAMDSSLQARLFPGLAIKIQRSNGLIHSANVRTVNLEKSCVSVEWAEGGATKGKEIDFDDVAAINPELLQLLPLHPKDNLPLQENVTIQKQKRRSVNSKIPAPKESLRSRSTRMSTVSELRITAQENDMEVELPAAANSRKQFSVPPAPTRPSCPAVAEIPLRMVSEEMEEQVHSIRGSSSANPVNSVRRKSCLVKEVEKMKNKREEKKAQNSEMRMKRAQEYDSSFPNWEFARMIKEFRATLECHPLTMTDPIEEHRICVCVRKRPLNKQELAKKEIDVISIPSKCLLLVHEPKLKVDLTKYLENQAFCFDFAFDETASNEVVYRFTARPLVQTIFEGGKATCFAYGQTGSGKTHTMGGDLSGKAQNASKGIYAMASRDVFLLKNQPCYRKLGLEVYVTFFEIYNGKLFDLLNKKAKLRVLEDGKQQVQVVGLQEHLVNSADDVIKMIDMGSACRTSGQTFANSNSSRSHACFQIILRAKGRMHGKFSLVDLAGNERGADTSSADRQTRMEGAEINKSLLALKACIRALGQNKAHTPFRESKLTQVLRDSFIGENSRTCMIATISPGISSCEYTLNTLRYADRVKELSPHSGPSGEQLIQMETEEMEACSNGALIPGNLSKEEEELSSQMSSFNEAMTQIRELEEKAMEELKEIIQQGPDWLELSEMTEQPDYDLETFVNKAESALAQQAKHFSALRDVIKALRLAMQLEEQASRQISSKKRPQ	0.59	0.9	0.1	0.16	0.195
Full-length human MCAK-his6-EGFP R528A (natural protein) MAMDSSLQARLFPGLAIKIQRSNGLIHSANVRTVNLEKSCVSVEWAEGGATKGKEIDFDDVAAINPELLQLLPLHPKDNLPLQENVTIQKQKRRSVNSKIPAPKESLRSRSTRMSTVSELRITAQENDMEVELPAAANSRKQFSVPPAPTRPSCPAVAEIPLRMVSEEMEEQVHSIRGSSSANPVNSVRRKSCLVKEVEKMKNKREEKKAQNSEMRMKRAQEYDSSFPNWEFARMIKEFRATLECHPLTMTDPIEEHRICVCVRKRPLNKQELAKKEIDVISIPSKCLLLVHEPKLKVDLTKYLENQAFCFDFAFDETASNEVVYRFTARPLVQTIFEGGKATCFAYGQTGSGKTHTMGGDLSGKAQNASKGIYAMASRDVFLLKNQPCYRKLGLEVYVTFFEIYNGKLFDLLNKKAKLRVLEDGKQQVQVVGLQEHLVNSADDVIKMIDMGSACRTSGQTFANSNSSRSHACFQIILRAKGRMHGKFSLVDLAGNERGADTSSADRQTRMEGAEINKSLLALKECIAALGQNKAHTPFRESKLTQVLRDSFIGENSRTCMIATISPGISSCEYTLNTLRYADRVKELSPHSGPSGEQLIQMETEEMEACSNGALIPGNLSKEEEELSSQMSSFNEAMTQIRELEEKAMEELKEIIQQGPDWLELSEMTEQPDYDLETFVNKAESALAQQAKHFSALRDVIKALRLAMQLEEQASRQISSKKRPQ	0.65	0	0.29	0.66	0.205
